Data published in the RNAGym collection of RNA variant scans (doi:10.1093/molbev/msab373).

B1: Azoarcus group I ribozyme (parent)
chain: GUGCCUUGCGCCGGGAAACCACGCAAGGGAUGGUGUCAAAUUCGGCGAAACCUAAGCGCCCGCCCGGGCGUAUGGCAACGCCGAGCCAAGCUUCGGCGCCUGCGCCGAUGAAGGUGUAGAGACUAGACGGCACCCACCUAAGGCAAACGCUAUGGUGAAGGCAUAGUCCAGGGAGUGGCGAAAGUCACACAAACCGG

Variants of: B1
Experiment: reverse-splicing fitness (ratio to wild type); higher = more active; in vitro selection; Mg2+ level not given
Method in brief: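 An in vitro group I ribozyme library with randomized positions was T7-transcribed and gel-purified. In triplicate, 10 pmol RNA in EPPS pH 7.5 was reacted with 50 pmoles of a 30-nt RNA substrate for 1 h at 37 °C across several added MgCl2 levels (1–48 mM), then stopped with EDTA. Products were reverse transcribed from a substrate-complementary primer, PCR-amplified and sequenced (HiSeq 4000). Fitness is a variant's read proportion after selection over that before, normalised to wild type.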

Row | Variant | reverse-splicing fitness
1 | GUGCCUUGCGCCGGGAAACCACGCAAGGGAUGGUGUCAAAUUCGGCGAAACCUAAGCGCCCGCCCGGGCGUAUGGCAACGCUGAGCCAAGCUUCGGCGCCUGCGCCGAUGCAGGUGUAGCGACUAGACGGCACCCACCUAAGGCUAACGUUAUGGUGAAGGCAUAGUCAAGGGAGGGGCGAAAGUCACACAAACCGG [C82U A111C A120C A145U C150U C169A U176G] | 0.00665
2 | GUGCCUUGCGCCGGGAAACCACGCAAGGGAUGGUGUCAAAUUCGGCGAAACCUAAGCGCCCGCCCGGGCGUAUGGCAACGCUGAGCCAAGCUUCGGCGCCUGCGCCGAUGCAGGUGUAGCGACUAGACGGCACCCACCUAAGGCUAACGUUAUGGUGAAGGCAUAGUCAAGGGAGCGGCGAAAGUCACACAAACCGG [C82U A111C A120C A145U C150U C169A U176C] | 0.00966
3 | GUGCCUUGCGCCGGGAAACCACGCAAGGGAUGGUGUCAAAUUCGGCGAAACCUAAGCGCCCGCCCGGGCGUAUGGCAACGCUGAGCCAAGCUUCGGCGCCUGCGCCGAUGCAGGUGUAGCGACUAGACGGCACCCACCUAAGGCUAACGUUAUGGUGAAGGCAUAGUCAAGGGAGAGGCGAAAGUCACACAAACCGG [C82U A111C A120C A145U C150U C169A U176A] | 0.0117
4 | GUGCCUUGCGCCGGGAAACCACGCAAGGGAUGGUGUCAAAUUCGGCGAAACCUAAGCGCCCGCCCGGGCGUAUGGCAACGCUGAGCCAAGCUUCGGCGCCUGCGCCGAUGCAGGUGUAGCGACUAGACGGCACCCACCUAAGGCUAACGGUAUGGUGAAGGCAUAGUCCAGGGAGGGGCGAAAGUCACACAAACCGG [C82U A111C A120C A145U C150G U176G] | 0.00321
5 | GUGCCUUGCGCCGGGAAACCACGCAAGGGAUGGUGUCAAAUUCGGCGAAACCUAAGCGCCCGCCCGGGCGUAUGGCAACGCUGAGCCAAGCUUCGGCGCCUGCGCCGAUGCAGGUGUAGCGACUAGACGGCACCCACCUAAGGCUAACGUUAUGGUGAAGGCAUAGUCGAGGGAGGGGCGAAAGUCACACAAACCGG [C82U A111C A120C A145U C150U C169G U176G] | 0.00521
6 | GUGCCUUGCGCCGGGAAACCACGCAAGGGAUGGUGUCAAAUUCGGCGAAACCUAAGCGCCCGCCCGGGCGUAUGGCAACGCUGAGCCAAGCUUCGGCGCCUGCGCCGAUGCAGGUGUAGCGACUAGACGGCACCCACCUAAGGCUAACGUUAUGGUGAAGGCAUAGUCGAGGGAGCGGCGAAAGUCACACAAACCGG [C82U A111C A120C A145U C150U C169G U176C] | 0.0142
7 | GUGCCUUGCGCCGGGAAACCACGCAAGGGAUGGUGUCAAAUUCGGCGAAACCUAAGCGCCCGCCCGGGCGUAUGGCAACGCUGAGCCAAGCUUCGGCGCCUGCGCCGAUGCAGGUGUAGCGACUAGACGGCACCCACCUAAGGCUAACGUUAUGGUGAAGGCAUAGUCGAGGGAGAGGCGAAAGUCACACAAACCGG [C82U A111C A120C A145U C150U C169G U176A] | 0.0126
8 | GUGCCUUGCGCCGGGAAACCACGCAAGGGAUGGUGUCAAAUUCGGCGAAACCUAAGCGCCCGCCCGGGCGUAUGGCAACGCUGAGCCAAGCUUCGGCGCCUGCGCCGAUGCAGGUGUAGCGACUAGACGGCACCCACCUAAGGCUAACGCUAUGGUGAAGGCAUAGUCAAGGGAGAGGCGAAAGUCACACAAACCGG [C82U A111C A120C A145U C169A U176A] | 0.0107
9 | GUGCCUUGCGCCGGGAAACCACGCAAGGGAUGGUGUCAAAUUCGGCGAAACCUAAGCGCCCGCCCGGGCGUAUGGCAACGCUGAGCCAAGCUUCGGCGCCUGCGCCGAUGCAGGUGUAGCGACUAGACGGCACCCACCUAAGGCUAACGCUAUGGUGAAGGCAUAGUCAAGGGAGGGGCGAAAGUCACACAAACCGG [C82U A111C A120C A145U C169A U176G] | 0.00532
10 | GUGCCUUGCGCCGGGAAACCACGCAAGGGAUGGUGUCAAAUUCGGCGAAACCUAAGCGCCCGCCCGGGCGUAUGGCAACGCUGAGCCAAGCUUCGGCGCCUGCGCCGAUGCAGGUGUAGCGACUAGACGGCACCCACCUAAGGCUAACGCUAUGGUGAAGGCAUAGUCAAGGGAGCGGCGAAAGUCACACAAACCGG [C82U A111C A120C A145U C169A U176C] | 0.0103
11 | GUGCCUUGCGCCGGGAAACCACGCAAGGGAUGGUGUCAAAUUCGGCGAAACCUAAGCGCCCGCCCGGGCGUAUGGCAACGCUGAGCCAAGCUUCGGCGCCUGCGCCGAUGCAGGUGUAGCGACUAGACGGCACCCACCUAAGGCUAACGCUAUGGUGAAGGCAUAGUCGAGGGAGCGGCGAAAGUCACACAAACCGG [C82U A111C A120C A145U C169G U176C] | 0.0132
12 | GUGCCUUGCGCCGGGAAACCACGCAAGGGAUGGUGUCAAAUUCGGCGAAACCUAAGCGCCCGCCCGGGCGUAUGGCAACGCUGAGCCAAGCUUCGGCGCCUGCGCCGAUGCAGGUGUAGCGACUAGACGGCACCCACCUAAGGCUAACGCUAUGGUGAAGGCAUAGUCGAGGGAGGGGCGAAAGUCACACAAACCGG [C82U A111C A120C A145U C169G U176G] | 0.00515
13 | GUGCCUUGCGCCGGGAAACCACGCAAGGGAUGGUGUCAAAUUCGGCGAAACCUAAGCGCCCGCCCGGGCGUAUGGCAACGCUGAGCCAAGCUUCGGCGCCUGCGCCGAUGCAGGUGUAGCGACUAGACGGCACCCACCUAAGGCUAACGCUAUGGUGAAGGCAUAGUCGAGGGAGAGGCGAAAGUCACACAAACCGG [C82U A111C A120C A145U C169G U176A] | 0.013
14 | GUGCCUUGCGCCGGGAAACCACGCAAGGGAUGGUGUCAAAUUCGGCGAAACCUAAGCGCCCGCCCGGGCGUAUGGCAACGCUGAGCCAAGCUUCGGCGCCUGCGCCGAUGCAGGUGUAGCGACUAGACGGCACCCACCUAAGGCUAACGCUAUGGUGAAGGCAUAGUCCAGGGAGAGGCGAAAGUCACACAAACCGG [C82U A111C A120C A145U U176A] | 0.0118
15 | GUGCCUUGCGCCGGGAAACCACGCAAGGGAUGGUGUCAAAUUCGGCGAAACCUAAGCGCCCGCCCGGGCGUAUGGCAACGCUGAGCCAAGCUUCGGCGCCUGCGCCGAUGCAGGUGUAGCGACUAGACGGCACCCACCUAAGGCUAACGUUAUGGUGAAGGCAUAGUCCAGGGAGGGGCGAAAGUCACACAAACCGG [C82U A111C A120C A145U C150U U176G] | 0.00604
